Laboratory results published in the supplement of paper PMC9170038.

Test system: MS2 coat protein
Test: apparent KD of MS2 coat protein; designed switch direction (-1 OFF switch, 1 ON switch): -1; higher = weaker reporter binding
In short: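 RNA switches sharing common flanks were transcribed by stalled E. coli RNA polymerase on Illumina chips. A doubling series of SNAP-549-labelled MS2 coat protein, from 0.7 or 1.5 nM to 3 µM, was applied in Tris-HCl pH 7.5 buffer with KCl, MgCl2, BSA, DTT, tRNA and Tween-20. Each step lasted 0.8–1.5 h at the bottom of the series and 10–20 min at the top. Normalised cluster fluorescence was curve-fitted, giving apparent KD as the per-design median over clusters.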

[1] = Eterna round: R95, input ligand: FMN 200 uM
[2] = Eterna round: R95, input ligand: microRNA oligo, concentration not stated
[3] = Eterna round: R95, input ligand: none
[4] = input ligand: microRNA oligo, concentration not stated

| Sequence | apparent KD of MS2 coat protein [1] | apparent KD of MS2 coat protein [2] | apparent KD of MS2 coat protein [3] | apparent KD of MS2 coat protein (input ligand: FMN 200 uM) | apparent KD of MS2 coat protein (input ligand: none) | apparent KD of MS2 coat protein [4] |
| --- | --- | --- | --- | --- | --- | --- |
| GAAAAGGUAGGAUAUACGAAAAAAAAGGGUAGAAAAAAAACACAUGAGGAUCACCCAUGUAGAAGGGCCAAAAG [salish99_ex2_r3_032] (puzzle: Exclusion 2) | 40.2 nM | 34 nM | 45.3 nM |  |  |  |
| UUUGUCUGUGUGAGGAUAUACUUUGUUUGGUCGUUGUAGAAGGCACAUGAGGAUCACCCAUGUAGUUUGUUGUG [JR_BME4_Sub014] (puzzle: Brourd's mod of Exclusion 4) |  | 20.3 nM |  |  |  |  |
| UUUACAAGCUUAUGAUCCCACAUGAGGAUCACCCAUGUUGCUGCCGUGAGGUAGCUUUUAACAUAUGCUCGUCUUAU [JL TOV1 3.39] (Eterna round: R97, puzzle: Sensor, turn-off variant 1) |  |  |  | 764 nM | 838 nM |  |
| UAUUAGCAAGCGAGAUCCCACAUGAGGAUCACCCAUGUGCUCGUCUUAUAUAAGGUACUGUACGAAAGUACGGUACC [Sensor 3, v1 - 91 v6] (Eterna round: R97, puzzle: Sensor, turn-off variant 1) |  |  |  | 16.6 nM | 16.2 nM |  |
| UAUUAGCAAGCCAAUGGGUACAUGAGGAUCACCCAUGUGCUCGUCUUAUAAGGUACUGUGACGAAAGUCACGGUACC [mod--Eli10] (Eterna round: R97, puzzle: Sensor, turn-off variant 1) |  |  |  | 16.7 nM | 17.7 nM |  |
| CUUUUGUGAGGAUAUCAGUAGUAAAUAAAUAAAAUUUCUACUGAGAAGGCACAUGAGGAUCACCCAUGUUCCUC [salish99_ex3_r3_085] (puzzle: Exclusion 4) |  | 36.3 nM |  |  |  |  |
| GUCAGCUCGUGAGGAUAUACAUGAGGAUCACCCAUGUGAUCAAUAGCAGCUUCGGCUGCAUACAUGUAGAAGGCACGAGCUGAC [ENG2/6-A1] (Eterna round: R96, puzzle: Exclusion NG 2) |  |  |  | 22.4 nM | 28.5 nM | 19.7 nM |
| CCCAAAGGGACAAGCUUUUACAUGAGGAUCACCCAUGUUUUGGGAGCUCGUCUUAUGGGCCCGGGAAACCCGGGCCC [-38, -58.7 kcal, A 22%] (Eterna round: R97, puzzle: Sensor, turn-off variant 1) |  |  |  | 17.1 nM | 17.2 nM |  |
| GUACAUUUAGGAUAUACGGCAGCCAAUGCAAGGGUUCUAUAACAUGAGGAUCACCCAUGUAGAAGGAGAGGGCG [Eternabot (L2) Solution 21] (Eterna round: R97, puzzle: Exclusion 2) |  |  |  | 70.8 nM | 55.2 nM |  |
| GUUAAUUGUCACAUGGGUGACAUGAGGAUCACCCAUGUCACAAGCUUUUUGUUCGUCUUAUAAUUAACCCAUGUGAC [Stov1/12-B2] (Eterna round: R97, puzzle: Sensor, turn-off variant 1) |  |  |  | 16 nM | 14.4 nM |  |
| ACAUGUUGCGCAGGAUAUGGGACACAUGAGGAUCACCCAUGUGGUUACAUGUCUUACCAAGCGUCCCAGAAGGGUGUGAACAUG [Ex NG2 #32] (Eterna round: R96, puzzle: Exclusion NG 2) |  |  |  | 26 nM | 20.3 nM | 16.5 nM |
| AAUGAUGAUGUGAGGAUAUACAUAGUUAGAAAGUAGUAGAAGGCACAUGAGGAUCACCCAUGUAGAUGUAAGGU [JR_BME4_Sub001] (puzzle: Brourd's mod of Exclusion 4) | 52.5 nM | 26.3 nM | 24.6 nM |  |  |  |
| GACAUGAGGAUCACCCAUGUAAGGGAUGAACUUCUGGGUAGCUAGGAUAUGGCUACAAAUGUGGACCAGAAGGAGCAUACCCUA [Didianveon] (Eterna round: R96, puzzle: Exclusion NG 3) |  |  |  | 13 nM | 16.7 nM | 12.7 nM |
| AAAUAAUAGAUAAAAUAAAACAUGAGGAUCACCCAUGUAGGCUGAUGAGGGUGAAACAAGCUUUUUGCUCGUCUUAU (puzzle: Sensor v3, turn-off variant 1) | 154 nM | 560 nM | 197 nM |  |  |  |
| AUAAUAAAGGAGGAUAUCGUUACGGAAACGUAACGAGAAGGUCUAACAUGAGGAUCACCCAUGUUCCUCAAAUA [Mat - Exclusion 6 - Eli Mod - D53] (puzzle: Exclusion 6) | 49.9 nM | 36.4 nM | 37.4 nM |  |  |  |
| GGCAAUAACGAGGAUAUCGUAUGGGAAACCAUACGAGAAGGUGUAACAUGAGGAUCACCCAUGUUCCUCAAGCC [Mat - Exclusion 6 - Eli Mod - D66] (puzzle: Exclusion 6) | 35.3 nM | 34.6 nM | 40 nM |  |  |  |
| UCAUGUCCUGAGGAUAUGCAGCGGAUAAACGCAGCAGAAGGCAGGACAUGAGGAUCACCCAUGUGUGCCUUCUA [Exclusion 6 Mod5 of JL of Mod of Letion by ViennaUCT] (Eterna round: R97, puzzle: Exclusion 6) |  |  |  | 18.3 nM | 190 nM |  |

| Sequence | apparent KD of MS2 coat protein [1] | apparent KD of MS2 coat protein [2] | apparent KD of MS2 coat protein [3] | apparent KD of MS2 coat protein (input ligand: FMN 200 uM) | apparent KD of MS2 coat protein (input ligand: none) | apparent KD of MS2 coat protein [4] |
| --- | --- | --- | --- | --- | --- | --- |
| AAUUCACAUGAGGAUCACCCAUGUCAGGAUAUGGUUUCGCGGGUUUCGGUGCGUGAGGCCAGAAGGGACAGCUA (puzzle: Exclusion 1) |  | 49.2 nM |  |  |  |  |
| GGCCCUAAGGUCAGAUUCACAAGCUUUUUGCUCGUUUUAACAUGAGGAUCACCCAUGUCUAGUGGAUCUGAUCCUCU [Sensor v3, turn-off variant 2 (MOD of Indiso v.1)] (puzzle: Sensor v3, turn-off variant 2) | 27.5 nM | 14.9 nM | 31.2 nM |  |  |  |
| UUUUUGUGAGGAUAUCAGUAGUAAAUAAAUAAAAUUACUACUGAGAAGGCACAUGAGGAUCACCCAUGUUCCUU [salish99_ex3_r3_090] (puzzle: Exclusion 4) |  | 14 nM |  |  |  |  |
| AAUAAACAUGAGGAUCACCCAUGUGAGGAUAUGCAAAUAAAUAAAUAAAUAAAUAAUAGUAGAAGGCGCAAUAA [Excls1-I] (puzzle: Exclusion 1) | 34 nM | 52.6 nM | 63 nM |  |  |  |
| GUGUAGUAAGGAUAUACAUGAGGAUCACCCAUGUGAGUAAGAUAGAAUAAGAUAAAGUGUAGAAGGUAUAGUGU [Excluse me!!! 16 - Jieux - Exclusion 3] (puzzle: Exclusion 3) | 42.6 nM | 42.8 nM | 48.9 nM |  |  |  |
| GCAGAAAGUGUAGGAUAUCUAAUAAAGCGGAAACGCAAGACAUGAGGAUCACCCAUGUGUCCGGAAGAGAAGGGCAAAAGCUGC [EXNG2 V2 c] (Eterna round: R96, puzzle: Exclusion NG 2) |  |  |  | 26.6 nM | 38.2 nM | 22.7 nM |
| UGCUACGGAGGAUAUACAUGAGGAUCACCCAUGUGUGAGAUUUGGCCGAGAGGCCAGUGUAGAAGGCCGUAGCU [jl-ex3-4.19 jl mod] (Eterna round: R97, puzzle: Exclusion 3) |  |  |  | 615 nM | 193 nM |  |
| AGACACUGAGGAUAUACAUGAGGAUCACCCAUGUAUGGGAAAUACGAAUGUAUUAGUUGUAGAAGGUGGUGUCG [Eternabot (L1) Solution 10] (Eterna round: R97, puzzle: Exclusion 3) |  |  |  | 183 nM | 199 nM |  |
| GAUCAACAUGAGGAUCACCCAUGUGAGGAUAUGAUACUAUGUACUUCGGUACAUAGUAUCAGAAGGCAUGUGAA [Ex1-3: 77] (puzzle: Exclusion 1) |  | 80.1 nM |  |  |  |  |
| GUGAUCUAUCAUGGGAUAAACAUGAGGAUCACCCAUGUAGACAAGUUUUUUGCUCGUCUUAUAAUAAGAUAGAUCAC [Antenna 1 - Jieux - Sensor, turn-off variant 1] (Eterna round: R97, puzzle: Sensor, turn-off variant 1) |  |  |  | 37.2 nM | 39.4 nM |  |
| UGUACGAUGCGUGCUGACAUGCGUCGUGCAGCAGGUGUUACAUGAGGAUCACCCAUGUCCUCAUUUGCUCGUCUUAU [SL-sv3-2.08 JL mod] (puzzle: Sensor v3, turn-off variant 2) | 250 nM | 250 nM | 337 nM |  |  |  |
| CAUUAUUAUCGAGGAUAUCCUAUUGUAAUUCUGGGAGAAGGCGGACUCAACAUGAGGAUCACCCAUGUAAGACGGGUGCUAGAG [Ex NG1 #24] (Eterna round: R96, puzzle: Exclusion NG 1) |  |  |  | 306 nM | 276 nM | 236 nM |
| AUAACAAGCUUUUUGUUCGUAGAACAUGACGCUCGAGUCACAUGAGGAUCACCCAUGUCAUCCAGAUUGAUAGUUGA [JR_SV3TOV2_Sub059] (puzzle: Sensor v3, turn-off variant 2) | 35.5 nM | 47.3 nM | 44.3 nM |  |  |  |
| GCAUGAAUGUAGGAUAUCUGUAGGGCCCGGACCAGAGAAGGACGCACAUGAGGAUCACCCAUGUCUUGAUGAUC [Eternabot (L1) Solution 15] (Eterna round: R97, puzzle: Exclusion 6) |  |  |  | 540 nM | 239 nM |  |
| AGGUAACAUGAGGAUCACCCAUGUCAGGAUAUCAUGAAGAUUAGAUUAGAGGAGAGGUUGAGAAGGGACUAUAU [Excluse me! 16 - Jieux - Exclusion 1] (puzzle: Exclusion 1) |  | 45.4 nM |  |  |  |  |
| CUUAAUUGUGACAUGGGUGACAUGAGGAUCACCCAUGUCACAAGCUUUUUGUUCGUCUUAUAAUUAACCCAUGUCAC [Stov1/13-B3] (Eterna round: R97, puzzle: Sensor, turn-off variant 1) |  |  |  | 44.9 nM | 52.7 nM |  |
| GGUACUAACACGAAAGUGUUAGUACUAUAAGCUUGUGUUACAUGAGGAUCACCCAUGUCCUCAUAGGCUCGUCUUGU [JL-sv3-2.17 mat747 mod] (puzzle: Sensor v3, turn-off variant 2) | 105 nM | 51 nM | 115 nM |  |  |  |
